The supplement of paper PMC10567573

B1: PTPRD (parent)
chain: ELDELLKEISRKRRSIRYGREVEL
B2: CHCHD3 (parent)
chain: YSGAYGASVSDEELKRRVAEELAL

Variants of: B1
Assay: protein stability index of a GFP-peptide fusion (GPS, HEK-293T) (PSI 1-6); higher = more stable
Conditions: c terminus: a fixed tail appended
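Note: lentivirally expressed fusions sorted by FACS into six bins by GFP to DsRed ratio, PSI derived from sequencing read proportions per bin multiplied by bin number.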

First: V22M
Second: V22Q
The protein stability index of the first is higher: 2.85 for the first, 2.5 for the second.

Going from V22A to V22I, the protein stability index rises from 1.82 to 2.17.

Compared with V22C, V22E is higher in protein stability index: 2.29 for the first, 3.18 for the second.

Compared with V22D, V22G is lower in protein stability index: 2.96 for the first, 2.64 for the second.

First: V22H
Second: V22Y
The protein stability index of the first is higher: 2.88 for the first, 2.27 for the second.

Compared with V22L, V22F is higher in protein stability index: 2.14 for the first, 2.22 for the second.

First: V22T
Second: V22R
The protein stability index of the first is higher: 2.52 for the first, 2.46 for the second.

First: V22K
Second: V22W
The protein stability index of the first is lower: 2.34 for the first, 2.39 for the second.

Compared with V22P, V22S is higher in protein stability index: 2.04 for the first, 2.79 for the second.

Compared with V22N, R20G is lower in protein stability index: 2.35 for the first, 2.23 for the second.

Going from R20W to R20V, the protein stability index rises from 1.43 to 1.8.

Compared with R20K, R20T is higher in protein stability index: 2.17 for the first, 2.45 for the second.

Going from R20H to R20Y, the protein stability index falls from 2.08 to 1.89.

Going from R20I to R20L, the protein stability index falls from 2.11 to 1.84.

Compared with R20M, R20E is higher in protein stability index: 2.02 for the first, 2.71 for the second.

Compared with R20Q, R20S is higher in protein stability index: 2.42 for the first, 3.33 for the second.

Going from R20F to R20N, the protein stability index rises from 1.64 to 2.8.

Compared with R20C, R20P is higher in protein stability index: 2.01 for the first, 2.49 for the second.

Going from R20D to R20A, the protein stability index falls from 3.33 to 2.85.

First: L24A
Second: L24N
The protein stability index of the first is lower: 2.69 for the first, 2.97 for the second.

Compared with L24P, L24G is lower in protein stability index: 2.89 for the first, 2.5 for the second.

Compared with L24I, L24T is higher in protein stability index: 2.42 for the first, 2.86 for the second.

Compared with L24Q, L24E is higher in protein stability index: 2.32 for the first, 2.77 for the second.

Compared with L24R, L24C is lower in protein stability index: 3.13 for the first, 2.38 for the second.

Compared with L24K, L24S is higher in protein stability index: 2.33 for the first, 2.69 for the second.

First: L24F
Second: L24V
The protein stability index of the first is lower: 2.55 for the first, 2.92 for the second.

Going from L24M to L24W, the protein stability index falls from 2.73 to 2.42.

First: L24D
Second: L24H
The protein stability index of the first is lower: 2.33 for the first, 2.91 for the second.

Compared with L24Y, G19T is lower in protein stability index: 2.54 for the first, 2.37 for the second.

Compared with G19E, G19F is lower in protein stability index: 2.71 for the first, 1.71 for the second.

First: G19Q
Second: G19W
The protein stability index of the first is lower: 2.33 for the first, 2.9 for the second.

Compared with G19Y, G19L is higher in protein stability index: 2.1 for the first, 2.13 for the second.

Going from G19D to G19I, the protein stability index falls from 2.22 to 2.05.

First: G19P
Second: G19A
The protein stability index of the first is lower: 2.17 for the first, 2.34 for the second.

Compared with G19V, G19C is lower in protein stability index: 3.13 for the first, 2.7 for the second.

Going from G19N to G19M, the protein stability index falls from 2.47 to 2.41.

First: G19K
Second: G19H
The protein stability index of the first is lower: 2.06 for the first, 2.41 for the second.

Going from G19R to G19S, the protein stability index rises from 1.96 to 2.04.

First: Y18V
Second: Y18W
The protein stability index of the first is higher: 1.95 for the first, 1.84 for the second.

Compared with E21D, E21A is higher in protein stability index: 1.79 for the first, 2.16 for the second.

First: E21Q
Second: E21V
The protein stability index of the first is higher: 2.13 for the first, 1.86 for the second.

Compared with E21R, E21N is lower in protein stability index: 2.23 for the first, 1.93 for the second.

Going from E21M to E21P, the protein stability index rises from 1.86 to 2.71.

First: E21I
Second: E21S
The protein stability index of the first is lower: 1.82 for the first, 1.86 for the second.

Compared with E21Y, E21K is lower in protein stability index: 2.15 for the first, 2.09 for the second.

Compared with E21G, E21T is higher in protein stability index: 2.22 for the first, 3.01 for the second.

Compared with E21C, E21L is lower in protein stability index: 2.55 for the first, 2.12 for the second.

First: E21H
Second: E21F
The protein stability index of the first is lower: 2.06 for the first, 2.22 for the second.

Going from E23A to E23P, the protein stability index rises from 2.31 to 2.56.

First: E23I
Second: E23K
The protein stability index of the first is higher: 2.38 for the first, 1.74 for the second.

Compared with E23R, E23M is lower in protein stability index: 2.17 for the first, 2.08 for the second.

Going from E23T to E23Y, the protein stability index falls from 2.34 to 1.92.

Compared with E23N, E23V is higher in protein stability index: 2.54 for the first, 2.57 for the second.

First: E23W
Second: E23F
The protein stability index of the first is higher: 2.09 for the first, 2.05 for the second.

Going from E23S to E23G, the protein stability index falls from 2.47 to 2.41.

Going from E23Q to E23C, the protein stability index falls from 2.25 to 1.96.

First: E23D
Second: E23L
The protein stability index of the first is lower: 2.12 for the first, 2.85 for the second.

With E23H the protein stability index was 2.51.

Variants of: B2
Assay: as above
Conditions: c terminus: a fixed tail appended

First: A19Y
Second: A19C
The protein stability index of the first is lower: 2.27 for the first, 2.67 for the second.

First: A19V
Second: A19N
The protein stability index of the first is lower: 3.43 for the first, 3.53 for the second.

First: A7M
Second: A7V
The protein stability index of the first is higher: 2.94 for the first, 2.56 for the second.

First: V18N
Second: V18M
The protein stability index of the first is higher: 2.73 for the first, 2.09 for the second.

Going from V18I to E13L, the protein stability index falls from 2.86 to 2.85.

First: G6M
Second: G6C
The protein stability index of the first is higher: 2.4 for the first, 2.22 for the second.

Going from G6T to G6I, the protein stability index rises from 2.11 to 2.12.

First: G6Y
Second: A4D
The protein stability index of the first is lower: 1.9 for the first, 4.64 for the second.

Going from A4L to A4T, the protein stability index rises from 2.7 to 3.66.

First: K15M
Second: K15N
The protein stability index of the first is higher: 2.61 for the first, 2.19 for the second.

First: E12G
Second: Y1F
The protein stability index of the first is lower: 1.82 for the first, 2.71 for the second.

Going from A23R to E21L, the protein stability index rises from 2.26 to 2.87.

First: E21S
Second: E20F
The protein stability index of the first is higher: 3.57 for the first, 1.99 for the second.

First: E20H
Second: E20Q
The protein stability index of the first is lower: 2.59 for the first, 2.68 for the second.

Compared with S8D, S8P is lower in protein stability index: 4.18 for the first, 2.07 for the second.

First: R17I
Second: R17G
The protein stability index of the first is higher: 2.4 for the first, 2.36 for the second.

Going from L14V to L14K, the protein stability index rises from 2.63 to 2.94.

Compared with L14I, G3A is higher in protein stability index: 2.41 for the first, 2.94 for the second.

Going from G3E to G3P, the protein stability index falls from 4.87 to 3.78.

Going from G3K to G3M, the protein stability index rises from 3.17 to 3.81.

Compared with Y5D, L24T is lower in protein stability index: 5.3 for the first, 2.48 for the second.

Going from L24G to L24C, the protein stability index falls from 2.96 to 2.79.

First: R16A
Second: S10D
The protein stability index of the first is lower: 2.34 for the first, 3.35 for the second.

First: S10N
Second: S2L
The protein stability index of the first is lower: 2.4 for the first, 2.88 for the second.

Compared with S2I, S2E is higher in protein stability index: 2.17 for the first, 4.78 for the second.

Going from D11E to V9H, the protein stability index rises from 1.55 to 2.77.
